Results: paper doi:10.1101/2023.01.02.522444 (bioRxiv, 2023)

Legend:
[1] = target: Isw1 (residues 69-1129) (S. cerevisiae, UniProt P38144 69-1129); assay: cryo-EM structure
[2] = target: histone H4 (Xenopus), in the nucleosome (Xenopus, UniProt P62799 1-103); assay: cryo-EM structure

Isw1 (residues 69-1129), sequence (P38144 69-1129): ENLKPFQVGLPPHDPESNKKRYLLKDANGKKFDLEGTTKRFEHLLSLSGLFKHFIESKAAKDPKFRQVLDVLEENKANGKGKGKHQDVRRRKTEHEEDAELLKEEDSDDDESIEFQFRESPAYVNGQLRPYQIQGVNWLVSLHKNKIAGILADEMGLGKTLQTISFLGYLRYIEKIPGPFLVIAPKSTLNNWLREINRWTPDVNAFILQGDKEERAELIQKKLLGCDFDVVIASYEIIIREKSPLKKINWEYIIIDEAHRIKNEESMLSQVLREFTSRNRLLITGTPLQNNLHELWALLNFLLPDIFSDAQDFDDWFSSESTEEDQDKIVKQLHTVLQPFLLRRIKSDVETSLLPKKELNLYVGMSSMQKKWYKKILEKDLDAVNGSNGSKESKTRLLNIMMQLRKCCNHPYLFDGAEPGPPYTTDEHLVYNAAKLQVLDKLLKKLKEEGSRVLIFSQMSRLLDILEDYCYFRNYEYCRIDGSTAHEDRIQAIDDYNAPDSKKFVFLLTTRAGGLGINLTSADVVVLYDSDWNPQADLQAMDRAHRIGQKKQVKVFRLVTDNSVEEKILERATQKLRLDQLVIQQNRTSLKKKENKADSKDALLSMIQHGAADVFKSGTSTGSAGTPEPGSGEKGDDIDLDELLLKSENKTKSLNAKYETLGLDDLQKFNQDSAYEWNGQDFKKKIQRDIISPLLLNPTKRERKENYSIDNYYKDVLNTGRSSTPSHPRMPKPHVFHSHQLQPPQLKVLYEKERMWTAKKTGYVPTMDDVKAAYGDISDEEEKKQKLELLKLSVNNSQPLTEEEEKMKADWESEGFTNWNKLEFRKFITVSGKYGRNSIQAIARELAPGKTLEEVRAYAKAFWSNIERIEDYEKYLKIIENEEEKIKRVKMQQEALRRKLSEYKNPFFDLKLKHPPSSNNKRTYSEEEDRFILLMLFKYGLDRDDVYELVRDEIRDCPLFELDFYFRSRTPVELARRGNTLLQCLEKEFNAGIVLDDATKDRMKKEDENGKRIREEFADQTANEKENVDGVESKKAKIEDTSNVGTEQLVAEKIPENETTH

binding result [1]: binds
binding result [2]: binds
B1: Ioc3 (residues 127-749) (domain or fragment)
chain: VAPKPKPAHEQVEPALIPSNWTSVIPLLTSDFKNQYSVISRLKNPNMKPVPYAGDIIKLMAFINKFSSFFHSDLQNLSFQDFEVGLDLYPGDPNGSAAGIVKGPEDTSLLLYPDFMAIKDIVYCQDKMNLLFLSLLDLTFTENFDGKSAKKKGPLTTWENLKSSSKKVFSNPLYRLRLVAREWGYPREWRQQLPSDQDISKPKTALFEQDEQTPVVDPSHPEILTPNIYTWNANEPLPLESNPLYNREMDKNGILALKPMDRVVLLRALTDWCASHSSAIHDEIYKLTHGKKDPVFGIQTQQVPRYTIEGVDNTINQFKKLCSLIQSRYEIRSKKKHFVKQLKEGKKPDLSRKLEILKEIKAELKNAVKSEKDELLFSLYDKWVPLFEGELPDQPLANPFSERLYKLRLQEFFLGRVPHIGDFYMPRLHSYGDSLEMSTFTDLRNLQALLSKFKNNEYNAFTLFENDGQSMSAQFKLFYHDTPSLAHDVARGRNTSGKVYWYELCHDSATLLEFLEFLDYKIVKPQDEKKEGNEKEKEALNNEAHILEQKSTTDNNPSINTNPLPKDAKYNTARKKLQILKEFLSDYYFILRQFEQMKVQFADMKPGKRQLRRIQRQTVNYNT
